The values below come from patent publication US6518401B2, “Tumor necrosis factor stimulated gene 6 (TSG-6) protein” (New York University, priority 1991, dated 2003).

The nature of experiment [1]: Binding of TSG-6 protein to hyaluronic acid coupled to Sepharose (Western blot). More on the design: species or system bovine. Here is the method:
To analyze the hyaluronic acid binding properties of the TSG-6 protein, hyaluronic acid was coupled to Sepharose (HA-Sepharose) to be used as a matrix for affinity chromatography.
To couple hyaluronic acid to Sepharose, 100 mg hyaluronic acid from bovine trachea (Sigma Chemicals) was dialyzed extensively against 0.5 M NaCl. Five ml EAH-Sepharose 4 B (Pharmacia) was washed extensively with 0.5 M NaCl and mixed with the hyaluronic acid solution. The pH was adjusted to 4.5 and 40 mg 1-(3-dimethylaminopropyl)-3-ethylcarbodiimide hydrochloride (Aldrich Chem. Co.), dissolved in 1 ml distilled water, was added dropwise under constant stirring. The pH was kept at 4.5 for 1 hr. After constantly stirring the reaction mixture overnight, 200 μl acetic acid were added for another 4 hr to block the remaining amino groups on the EAH-Sepharose. […]
To show the binding of TSG-6 protein to HA-Sepharose but not to a similarly activated and blocked control Sepharose matrix, concentrated serum-free supernatant of GSV-L5 cells was used. […] Thereafter, the supernatants were removed and analyzed by Western blotting with anti-TSG-6 antibody. […] After vigorous shaking and centrifugation the supernatants were removed, dialyzed against Tris buffered saline and analyzed by Western blotting (FIG. 15). […]

Experiment [2] has as its system TSG-6 binding protein in serum. Kind of experiment: TSG-6 binding to carrier protein in sera (120-kDa complex, Western blot). Conditions: recombinant human TSG-6 incubated with human, fetal bovine, rabbit, or mouse serum, 37° C. How it is done:
(§1) Analysis of TSG-6 Binding to Carrier Protein. To determine the presence of TSG-6 binding protein, samples to be analyzed were mixed with an equal volume of TSG-6-containing serum-free supernatants of TN-5 B insect cells infected with recombinant Baculovirus and incubated at 37° C. for 30-60 min. (Purified TSG-6 protein was used in some experiments, as indicated.) Thereafter, the mixtures were analyzed for the presence of the 120-kDa complex by Western blotting with purified rabbit antibody to TSG-6 as described earlier (Wisniewski et al, J. Immunol. 151:6593-6601 (1993)). For detection of inter-α-inhibitor (IαI) epitopes by Western blotting, membranes were incubated with a rabbit anti-human IαI antibody (Dako) at a 1:2000 dilution for 1 hr.
Binding of TSG-6 Protein to a Protein Present in Mammalian Sera and in Supernatants of Human HepG-2 Hepatoma Cells. […] Recombinant human TSG-6 protein produced in insect cells migrates somewhat faster than the 35-kDa TSG-6 protein from human cells (Wisniewski et al, J. Immunol. 151:6593-6601 (1993)) possibly due to s different extent of glycosylation. […] When TSG-6 containing culture upernatants were incubate at 37° C. in the presence of fetal bovine serum (lane 3), mouse serum (lane 7), or serum-free culture supernatant of human HepG-2 hepatoma cells (lane 5), an additional 120-kDa band became readily apparent. […]

Experiment [3] concerns the target T1, IαI purified from human serum (Homo sapiens, UniProt P02760+P19823).
T1 construct: IαI is a complex protein in which the bikunin chain is linked to HC1 and HC2; supposed to determine the cleavage site for the C-terminal propeptide; from tissue; host or cells: human serum
Kind of experiment: TSG-6/IαI complex formation with purified proteins (SDS-PAGE, Western blot). The format is binding. Here is the method:
Purified recombinant TSG-6 protein (lane 1) and IαI purified from human serum (lane 2) were mixed and incubated for 2 min. (lane 3), 5 min. (lane 4), 10 min. (lane 5), 15 min. (lane 6), 30 min. (lane 7), or for 60 min. (lane 8) at 37° C. or for 60 min. at 0° C. (lane 9). The reaction mixtures were then separated by SDS-PAGE and subjected to Western blot analysis with rabbit anti-TSG-6 serum.
Four micrograms of purified IαI and 3 μg of purified TSG-6 protein were incubated separately for 16 hrs. at 37° C. in the absence or presence of 30 milliunits of chondroitin sulfate ABC lyase. Thereafter, control IαI was mixed with control TSG-6 protein (lane 1), chonroitinase-pretreated IαI was mixed with control TSG-6 (lane 2), and control IαI was reaction mixtured with chondroitinase-pretreated TSG-6 protein (lane 3). The reaction mixtures were incubated for 1 hr. at 37° C. before SDS-PAGE and Western blot analysis with anti-TSG-6 antibody.
as §1
Purification of IαI from Human Serum. IαI purified from human serum, according to Salier et al, Anal Biochem. 109:273-283 (1980), with some modifications. FPLC on Q Sepharose Fast Flow was used instead of DEAE-Sephacel chromatography. Chelating Sepharose Fast Flow was used for zinc chelate chromatography. Phenyl Superose was used for Hydrophobic chromatography and Superdex 200 was used for size-exclusion chromatography instead of Sephacryl-300. The IαI recovered was essentially pure as judged by SDS-PAGE and silver staining.
Rapid Complex Formation between Recombinant TSG-6 Protein and IαI Purified from Human Serum at 37° C. The 120kDa TSG-6/IαI complex formed readily when purified TSG-6 protein and purified IαI were incubated together at 37° C. but not at 0° C. […] This IαI derivative appears to be a by product of the reaction of TSG-6 with IαI. It should be noted that the 120kDa TSG-6/IαI complex is formed by purified TSG-6 and IαI proteins in the apparent absence of other proteins.
Chondroitin Sulfate Associated with IαI Is Required for the Formation of the TSG-6/IαI Complex. […]
In general terms: In western blotting, separated proteins are transferred to a membrane and probed.

The mark [4] stands for this setting: purified TSG-6 protein and purified IαI, 37° C.

Some results are limits rather than exact numbers.

T1 sequence (P02760 206-352 limits assumed): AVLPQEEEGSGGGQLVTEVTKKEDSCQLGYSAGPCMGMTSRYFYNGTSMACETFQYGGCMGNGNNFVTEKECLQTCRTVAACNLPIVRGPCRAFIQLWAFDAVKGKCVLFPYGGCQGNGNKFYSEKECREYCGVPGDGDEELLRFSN
T1 sequence (P19823 55-702 limits assumed): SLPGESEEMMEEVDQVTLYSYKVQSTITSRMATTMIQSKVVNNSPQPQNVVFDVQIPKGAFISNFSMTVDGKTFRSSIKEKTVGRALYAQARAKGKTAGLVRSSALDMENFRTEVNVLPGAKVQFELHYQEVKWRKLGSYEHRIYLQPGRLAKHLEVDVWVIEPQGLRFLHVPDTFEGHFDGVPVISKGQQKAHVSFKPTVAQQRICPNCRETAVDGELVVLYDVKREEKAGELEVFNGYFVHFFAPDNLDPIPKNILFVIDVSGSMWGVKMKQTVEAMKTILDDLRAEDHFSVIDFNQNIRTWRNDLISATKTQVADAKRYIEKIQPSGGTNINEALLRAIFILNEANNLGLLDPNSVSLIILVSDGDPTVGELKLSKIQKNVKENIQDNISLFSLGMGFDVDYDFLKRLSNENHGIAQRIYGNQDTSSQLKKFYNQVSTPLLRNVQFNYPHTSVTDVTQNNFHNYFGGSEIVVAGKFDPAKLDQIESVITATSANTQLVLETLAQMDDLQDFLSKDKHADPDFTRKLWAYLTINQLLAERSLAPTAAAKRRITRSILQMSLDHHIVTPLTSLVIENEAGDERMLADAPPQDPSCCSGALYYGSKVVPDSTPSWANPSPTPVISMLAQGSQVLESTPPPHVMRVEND
T1 sequence (P98066 18-277 partner): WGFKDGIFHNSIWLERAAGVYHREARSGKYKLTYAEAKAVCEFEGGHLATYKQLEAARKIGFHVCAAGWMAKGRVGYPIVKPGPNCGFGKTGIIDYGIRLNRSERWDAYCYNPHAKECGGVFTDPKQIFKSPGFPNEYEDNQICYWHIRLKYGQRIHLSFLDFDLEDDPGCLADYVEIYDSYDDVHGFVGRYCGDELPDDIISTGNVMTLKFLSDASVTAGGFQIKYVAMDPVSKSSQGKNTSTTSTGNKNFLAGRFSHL

On to “TSG-6 protein: cytokine-induced protein or glycoprotein, amino acid sequence SEQ ID NO:2; from GSV-L5 cells or Baculovirus-infected insect cells”, for which, in experiment [1] (concentrated serum-free GSV-L5 culture supernatant, overnight at 4° C., elution with 3 M NaCl), the “binding of TSG-6 protein to HA-Sepharose” value is “bound virtually all the TSG-6 protein”. Besides, the “binding of TSG-6 protein to control Sepharose matrix” value in experiment [1] (control Sepharose without hyaluronic acid, same procedure) is on record as “did not bind any detectable TSG-6 protein”. Further, the “complex formation on incubation with serum” value in experiment [2] is recorded as “readily incorporated into a stable 120 kDa complex”. Besides, the “ability to form the TSG-6/IαI complex after pretreatment of the protein with chondroitin sulfate ABC lyase” value in experiment [3] (preincubated 16 hrs. at 37° C. with chondroitinase, then mixed with the untreated partner protein) is recorded as “little effect”. For the same substance, the “TSG-6/IαI complex formation at 0° C.” value in experiment [3] (purified TSG-6 protein and purified IαI, 0° C., within 1 hr.) is “little or no TSG-6/IαI complex was formed”. Further, in experiment [3] (setting [4]), the “time until TSG-6/IαI complex formation detectable” value was ≤ 2 min and the “time until complex formation reaction appeared complete” value was ≤ 10 min.
